B1: RING finger protein Z (Lymphocytic choriomeningitis virus (strain Armstrong)), P18541 (parent)
chain: MGQGKSREEKGTNSTNRAEILPDTTYLGPLSCKSCWQKFDSLVRCHDHYLCRHCLNLLLSVSDRCPLCKYPLPTRLKISTAPSSPPPYEE

Variants of: B1
Details: with if4e_human EIF4E

With MGQGKSREEKGTNSTNRAEILPDTTYLGPLSCKSCWQKFDSLVRCHDHYLCRHCLNLLLSVSDRAPLAKYPLPTRLKISTAPSSPPPYEE [C65A;C68A] as the variant, how does the “effect of a mutation on the interaction” value read?
The value was “decreasing interaction”.

With MGQGKSREEKGTNSTNRAEILPDTTYLGPLSGKSFWQKFDSLVRCHDHYLCRHCLNLLLSVSDRCPLCKYPLPTRLKISTAPSSPPPYEE [C32G;C35F] as the variant, how does the “effect of a mutation on the interaction” value read?
Its value is “decreasing interaction”.

Source: IntAct's records for PubMed 11575918
